Experimental data from the supplement of paper PMC10567573.

B1: SLC6A17 (parent)
chain: KAVEEELDAEDRPAWNSKLQYILA
B2: CDKN1A (parent)
chain: GRKRRQTSMTDFYHSKRRLIFSKR

Variants of: B1
Assay: protein stability index of a GFP-peptide fusion (GPS, HEK-293T) (PSI 1-6); higher = more stable
Conditions: c terminus: a fixed tail appended
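Further: lentivirally expressed fusions sorted by FACS into six bins by GFP to DsRed ratio, PSI derived from sequencing read proportions per bin multiplied by bin number.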

Variant | protein stability index
KAVEEELDAEDRPAWNSKLQYILW [A24W] | 2.06
KAVEEELDAEDRPAWNSKLQYILM [A24M] | 2.06
KAVEEELDAEDRPAWNSKLQYILL [A24L] | 2.28
KAVEEELDAEDRPAWNSKLQYILN [A24N] | 3.48
KAVEEELDAEDRPAWNSKLQYILT [A24T] | 2.85
KAVEEELDAEDRPAWNSKLQYILP [A24P] | 3.25
KAVEEELDAEDRPAWNSKLQYILV [A24V] | 1.68
KAVEEELDAEDRPAWNSKLQYILY [A24Y] | 2.18
KAVEEELDAEDRPAWNSKLQYILS [A24S] | 2.82
KAVEEELDAEDRPAWNSKLQYILR [A24R] | 3.27

Variants of: B2
Assay: as above
Conditions: c terminus: a fixed tail appended

Variant | protein stability index
S8I | 2.6
S8H | 4.01
S8A | 2.41
S8Q | 2.69
S8K | 3.4
S8Y | 2.35
S8C | 3.59
R24M | 2.17
R24W | 3.26
R24D | 3.29
R24K | 2.24
R24F | 2.24
R24V | 2
R24I | 2.91
R24P | 3.22
R24S | 3.62
R24T | 2.21
R24C | 3.93
G1P | 3.63
G1L | 2.86
G1S | 3.84
G1R | 3.87
L19W | 3.25
L19Y | 3.91
L19H | 3.78

Variant | protein stability index
L19F | 2.88
L19M | 3.98
L19S | 3.31
L19C | 2.81
F21L | 3.08
F21M | 3.48
F21C | 3.58
F21Y | 3.38
F21I | 3.27
F21G | 3.13
T10P | 2.48
T10C | 3.68
T10K | 2.52
T10A | 1.75
T10S | 2.54
T10F | 3.46
H14E | 3.45
H14L | 3.02
H14F | 2.96
D11R | 3.33
D11V | 2.44
D11A | 2.37
D11M | 3.13
D11P | 3.34
D11K | 2.77

Variant | protein stability index
D11I | 2.12
T7M | 2.6
T7H | 2.67
T7Y | 2.65
T7L | 2.79
T7I | 2.38
T7E | 2.22
T7K | 3.09
R4N | 4.63
R4H | 2.98
R4G | 3.58
R4A | 2.39
R4E | 3.62
R5K | 2.57
R5N | 2.74
R5T | 3.64
R5I | 3.03
R5F | 2.64
K23D | 2.95
K23P | 2.48
K23F | 3.02
K23T | 3.3
K23A | 3.19
K23Y | 2.74
K23S | 2.78

Variant | protein stability index
K23Q | 1.58
Q6R | 2.4
Q6C | 3.21
Q6T | 3.34
Q6I | 2.79
Q6M | 2.04
Q6Y | 2.67
Q6H | 3.62
R18G | 2.8
R18P | 2.11
R18F | 2.78
R18N | 2.76
R18C | 2.37
R18Q | 1.47
R18D | 2.48
R18T | 2.45
K3I | 2.76
K3L | 3.18
K3W | 2.56
K3F | 2.4
K3V | 2.83
K3M | 2.76
K3E | 2.19
F12A | 3.27
F12T | 2.78

Variant | protein stability index
F12V | 3.38
F12K | 2.36
F12C | 2.3
F12P | 3.34
R17P | 2.62
R17K | 3.87
R17G | 2.04
R17C | 2.76
R17M | 3.08
R17W | 2.28
S22R | 2.79
S22D | 2.17
M9P | 2.69
M9K | 2.62
M9A | 2.66
M9W | 3.37
M9G | 3.98
Y13C | 3.2
Y13G | 3.02
Y13E | 3.73
Y13V | 2.79
Y13F | 3.27
Y13P | 3.53
Y13T | 3.69
K16A | 3.51

Variant | protein stability index
K16N | 2.99
K16T | 4.09
K16P | 2.07
K16Q | 2.83
K16V | 3.12
K16C | 3.39
I20S | 2.5
I20A | 3.46
I20C | 2.93
I20T | 2.86
I20W | 2.3
I20K | 2.99
S15Y | 3.78
S15T | 2.44
S15F | 3.02
S15W | 3.71
S15R | 3.43
R2A | 2.05
R2L | 2.6
R2H | 2.33
R2V | 3.22
R2Y | 2.22
R2N | 2.74
R2C | 3.93
